The results in this text go back to the Human Domainome abundance scans (Beltran et al. 2025).

The labels stand for the following.
B1: Zinc finger homeobox protein 4, residues 2562 to 2617; numbered along this chain, Q86UP3 (parent)
chain: RLRTTITPEQLEILYEKYLLDSNPTRKMLDHIAREVGLKKRVVQVWFQNTRARERK

± gives the uncertainty stated by the source.

Variants of B1 are the subject of the data set. The data set is described as follows: abundance fitness (aPCA) (normalised: wild type 0, dead -1); higher = more abundant; growth selection in yeast, the domain comes from the species named. Conditions: Homo sapiens.
As for RLRTTITPEQLEILYEKYLLDSNPTRKMLDHIAREVGLKKRVVWVWFQNTRARERK, the abundance fitness was -0.045 ± 0.094.
To RLRTTITPEQLEILYEKYLLDSNPTRKMLDHIAREVGLKKRVVLVWFQNTRARERK belongs -0.128 ± 0.06; to RLRTTITPEQLEILYEKYLLDSNPTRKMLDHIAREVGLKKRVVIVWFQNTRARERK, -0.28 ± 0.092; to RLRTTITPEQLEILYEKYLLDSNPTRKMLDHIAREVGLKKRVVSVWFQNTRARERK, -0.248 ± 0.075.
To RLRTTITPEQLEILYEKYLLDSNPTRKMLDHIAREVGLKKRVVAVWFQNTRARERK belongs -0.011 ± 0.092; to RLRTTITPEQLEILYEKYLLDSNPTRKMLDHIAREVGLKKRVVFVWFQNTRARERK, -0.416 ± 0.21; to RLRTTITPEQLEILYEKYLLDSNPTRKMLDHIAREVGLKKRVVVVWFQNTRARERK, -0.156 ± 0.062.
With RLRTTITPEQLEILYEKYLLDSNPTRKMLDHIAREVGLKKRVVNVWFQNTRARERK the figure was -0.131 ± 0.14.
Take RLRTTITPEQLEILYEKYLLDSNPTRKMLDHIAREVGLKKRVVTVWFQNTRARERK: the abundance fitness was -0.053 ± 0.097.
With RLRTTITPEQLEILYEKYLLDSNPTRKMLDHIAREVGLKKRVVMVWFQNTRARERK the figure was -0.132 ± 0.09; with RLRTTITPEQLEILYEKYLLDSNPTRKMLDHIAREVGLKKRVVCVWFQNTRARERK, 0.246 ± 0.11; with RLRTTITPEQLEILYEKYLLDSNPTRKMLDHIAREVGLKKRVVDVWFQNTRARERK, 0.322 ± 0.09.
As to RLRTTITPEQLEILYEKYLLDSNPTRKMLDHIAREVGLKKRVVGVWFQNTRARERK, the abundance fitness was -0.031 ± 0.069.
To RLRTTITPEQLEILYEKYLLDSNPTRKMLDHIAREVGLKKRVVYVWFQNTRARERK belongs 0.202 ± 0.13.
With RLRTTITPEQLEILYEKYLLDSNPTRKMLDHIAREVGLKKRVVEVWFQNTRARERK the figure was 0.298 ± 0.056; with RLRTTITPEQLEILYEKYLLDSNPTRKMLDHIAREVGLKKRVVRVWFQNTRARERK, -0.191 ± 0.061; with RLRTTITPEQLEILYEKYLLDSNPTRKMLDHIAREVGLKKRVVHVWFQNTRARERK, -0.101 ± 0.094.
With RLRTTITPEQLEILYEKYLLDSNPTRKMLDHIAREVGLKKRVVQVSFQNTRARERK the figure was -0.91 ± 0.11.
In the case of RLRTTITPEQLEILYEKYLLDSNPTRKMLDHIAREVGLKKRVVQVIFQNTRARERK, the abundance fitness is -0.939 ± 0.15.
With RLRTTITPEQLEILYEKYLLDSNPTRKMLDHIAREVGLKKRVVQVCFQNTRARERK the figure was -0.663 ± 0.18.
In the case of RLRTTITPEQLEILYEKYLLDSNPTRKMLDHIAREVGLKKRVVQVPFQNTRARERK, the abundance fitness is -0.802 ± 0.088.
To RLRTTITPEQLEILYEKYLLDSNPTRKMLDHIAREVGLKKRVVQVEFQNTRARERK belongs -0.549 ± 0.093.
With RLRTTITPEQLEILYEKYLLDSNPTRKMLDHIAREVGLKKRVVQVHFQNTRARERK the figure was -0.878 ± 0.4.
To RLRTTITPEQLEILYEKYLLDSNPTRKMLDHIAREVGLKKRVVQVTFQNTRARERK belongs -0.756 ± 0.27; to RLRTTITPEQLEILYEKYLLDSNPTRKMLDHIAREVGLKKRVVQVLFQNTRARERK, -0.887 ± 0.14.
As for RLRTTITPEQLEILYEKYLLDSNPTRKMLDHIAREVGLKKRVVQVQFQNTRARERK, the abundance fitness is -1.05 ± 0.25.
With RLRTTITPEQLEILYEKYLLDSNPTRKMLDHIAREVGLKKRVVQVVFQNTRARERK the figure was -0.723 ± 0.061; with RLRTTITPEQLEILYEKYLLDSNPTRKMLDHIAREVGLKKRVVQVGFQNTRARERK, -0.752 ± 0.066.
With RLRTTITPEQLEILYEKYLLDSNPTRKMLDHIAREVGLKKRVVQVDFQNTRARERK the figure was -0.536 ± 0.16; with RLRTTITPEQLEILYEKYLLDSNPTRKMLDHIAREVGLKKRVVQVKFQNTRARERK, -1.03 ± 0.15; with RLRTTITPEQLEILYEKYLLDSNPTRKMLDHIAREVGLKKRVVQVMFQNTRARERK, -0.815 ± 0.15.
Turning to RLRTTITPEQLEILYEKYLLDSNPTRKMLDHIAREVGLKKRVVQVWWQNTRARERK, the abundance fitness turned out to be 0.049 ± 0.079.
In the case of RLRTTITPEQLEILYEKYLLDSNPTRKMLDHIAREVGLKKRVVQVWYQNTRARERK, the abundance fitness is -0.072 ± 0.11.
To RLRTTITPEQLEILYEKYLLDSNPTRKMLDHIAREVGLKKRVVQVWAQNTRARERK belongs -0.983 ± 0.17; to RLRTTITPEQLEILYEKYLLDSNPTRKMLDHIAREVGLKKRVVQVWRQNTRARERK, -0.969 ± 0.077.
With RLRTTITPEQLEILYEKYLLDSNPTRKMLDHIAREVGLKKRVVQVWQQNTRARERK the figure was -1.18 ± 0.34; with RLRTTITPEQLEILYEKYLLDSNPTRKMLDHIAREVGLKKRVVQVWVQNTRARERK, -0.974 ± 0.1; with RLRTTITPEQLEILYEKYLLDSNPTRKMLDHIAREVGLKKRVVQVWTQNTRARERK, -0.789 ± 0.11.
With RLRTTITPEQLEILYEKYLLDSNPTRKMLDHIAREVGLKKRVVQVWGQNTRARERK the figure was -0.913 ± 0.13; with RLRTTITPEQLEILYEKYLLDSNPTRKMLDHIAREVGLKKRVVQVWKQNTRARERK, -1 ± 0.27.
In the case of RLRTTITPEQLEILYEKYLLDSNPTRKMLDHIAREVGLKKRVVQVWEQNTRARERK, the abundance fitness was -0.806 ± 0.07.
With RLRTTITPEQLEILYEKYLLDSNPTRKMLDHIAREVGLKKRVVQVWIQNTRARERK the figure was -0.765 ± 0.2.
With RLRTTITPEQLEILYEKYLLDSNPTRKMLDHIAREVGLKKRVVQVWLQNTRARERK the figure was -0.74 ± 0.1; with RLRTTITPEQLEILYEKYLLDSNPTRKMLDHIAREVGLKKRVVQVWHQNTRARERK, -0.865 ± 0.44.
With RLRTTITPEQLEILYEKYLLDSNPTRKMLDHIAREVGLKKRVVQVWPQNTRARERK the figure was -0.885 ± 0.17; with RLRTTITPEQLEILYEKYLLDSNPTRKMLDHIAREVGLKKRVVQVWNQNTRARERK, -0.905 ± 0.22; with RLRTTITPEQLEILYEKYLLDSNPTRKMLDHIAREVGLKKRVVQVWDQNTRARERK, -0.46 ± 0.36.
